Columns and labels:
[1] = target: T1, E. coli (K12) FimH, wild type, on the surface of E. coli (Escherichia coli (K12), UniProt P08191 22-300); test: immunofluorescence microscopy of E. coli +/- FimH exposed to recombinant HMGB1, stained with anti-HMGB1 antibody
T1 construct: whole, on cells; also called FimH-WT; fimbrial protein H

[2] = target: T1, E. coli (K12) FimH, wild type, on the …; test: flow cytometry of FimH+ or FimH- E. coli (K12) treated with Box A protein and stained with anti-HIS antibody

T1 sequence (P08191 22-300): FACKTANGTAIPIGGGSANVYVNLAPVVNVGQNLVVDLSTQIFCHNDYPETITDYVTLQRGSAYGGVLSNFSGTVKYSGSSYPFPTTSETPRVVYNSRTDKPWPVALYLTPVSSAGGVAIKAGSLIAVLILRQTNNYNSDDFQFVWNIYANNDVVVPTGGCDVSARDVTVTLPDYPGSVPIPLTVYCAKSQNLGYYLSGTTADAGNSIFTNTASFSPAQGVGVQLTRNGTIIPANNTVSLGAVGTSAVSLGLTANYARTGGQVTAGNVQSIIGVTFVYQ

B1: High mobility group box 1 (HMGB1), recombinant human HMGB1 produced in mammalian cells (other)
chain: MGKGDPKKPRGKMSSYAFFVQTCREEHKKKHPDASVNFSEFSKKCSERWKTMSAKEKGKFEDMAKADKARYEREMKTYIPPKGETKKKFKDPNAPKRPPSAFFLFCSEYRPKIKGEHPGLSIGDVAKKLGEMWNNTAADDKQPYEKKAAKLKEKYEKDIAAYRAKGKPDAAKKGVVKAEKSKKKKEEEEDEEDEEDEEEEEDEEDEDEEEDDDDE
notes: also called recombinant HMGB1; full-length HMGB1 protein
B1: binds [1].

B2: Box A protein, truncation mutant composed of aa 2-97 of HMGB1 (other)
chain: GKGDPKKPRGKMSSYAFFVQTCREEHKKKHPDASVNFSEFSKKCSERWKTMSAKEKGKFEDMAKADKARYEREMKTYIPPKGETKKKFKDPNAPKR
notes: The position of the His tag is unknown; also called Box A from HMGB1; not shown: His tag implied by detection with anti-HIS antibody
B2: binds [2].
